What was measured:
Test in all cases: SPR
[1] = biological target: Human IgG1κ isotype control (human)
[2] = biological target: Recombinant HIV-1 gp120 SF162 (Clade B) (HIV-1 SF162 (Clade B))
[3] = biological target: Recombinant HIV-1 gp120 ZM53M.PB12 (HIV-1 ZM53M.PB12 (Clade C))

| Substance | Kd [1] | fold increase in affinity compared to AH [2] | fold increase in affinity compared to AH [3] |
| --- | --- | --- | --- |
| Neonatal Fc receptor (FcRn) (from UniProt P55899 24-365) | 18 nM | – | – |
| Recombinant human Fc gamma receptor IIIA (FcγRIIIa, CD16) (from UniProt P08637 17-254) | 680 nM | – | – |
| AvFc (lectibody: Avaren fused to the Fc region of human IgG1) (from UniProt Q9KWN0 47-160) (Fc fusion) | – | 10 fold | 10 fold |
| Recombinant human Fc gamma receptor IA (FcγRI, CD64) (from UniProt P12314 16-374) | 0.11 nM | – | – |
